Results on two molecules are retold here after US20230212549A1, “COMPOUNDS COMPRISING A […] LIGAND AND USE THEREOF” (priority 2021, published 2023).

Bridge positions count the residues as written; N and C are the ends.

What all share (assay): cell-based or functional assay
Experiment [1] has as its target T1, PDE4D2 (h) (human), Q08499.
T1 chain: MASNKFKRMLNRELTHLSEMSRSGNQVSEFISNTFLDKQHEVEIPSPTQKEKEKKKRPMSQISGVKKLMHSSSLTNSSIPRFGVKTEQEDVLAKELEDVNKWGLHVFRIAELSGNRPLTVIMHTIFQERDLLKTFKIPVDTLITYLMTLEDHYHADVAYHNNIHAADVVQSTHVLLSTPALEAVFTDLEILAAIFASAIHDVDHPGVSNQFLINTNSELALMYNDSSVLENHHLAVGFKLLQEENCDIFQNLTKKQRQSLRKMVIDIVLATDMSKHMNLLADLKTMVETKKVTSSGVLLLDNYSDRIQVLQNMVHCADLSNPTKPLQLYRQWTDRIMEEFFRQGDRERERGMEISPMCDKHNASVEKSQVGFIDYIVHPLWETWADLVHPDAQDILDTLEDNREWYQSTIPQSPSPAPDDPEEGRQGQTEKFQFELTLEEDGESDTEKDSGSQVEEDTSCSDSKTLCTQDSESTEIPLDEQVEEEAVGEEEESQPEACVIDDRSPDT

For another experiment, the target named is T2, Cathepsin F, Q9UBX1.
T2 chain: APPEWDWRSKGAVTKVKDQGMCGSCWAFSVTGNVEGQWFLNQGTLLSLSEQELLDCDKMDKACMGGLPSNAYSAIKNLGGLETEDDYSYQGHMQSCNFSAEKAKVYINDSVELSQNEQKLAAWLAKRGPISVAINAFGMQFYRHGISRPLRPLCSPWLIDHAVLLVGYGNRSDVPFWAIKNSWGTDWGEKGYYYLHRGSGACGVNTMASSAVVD

Experiment [2] concerns the target Lek kinase (h) (human), P06239.
For the next experiment, the target named is T3, COX1(h) (human), P23219.
T3 chain: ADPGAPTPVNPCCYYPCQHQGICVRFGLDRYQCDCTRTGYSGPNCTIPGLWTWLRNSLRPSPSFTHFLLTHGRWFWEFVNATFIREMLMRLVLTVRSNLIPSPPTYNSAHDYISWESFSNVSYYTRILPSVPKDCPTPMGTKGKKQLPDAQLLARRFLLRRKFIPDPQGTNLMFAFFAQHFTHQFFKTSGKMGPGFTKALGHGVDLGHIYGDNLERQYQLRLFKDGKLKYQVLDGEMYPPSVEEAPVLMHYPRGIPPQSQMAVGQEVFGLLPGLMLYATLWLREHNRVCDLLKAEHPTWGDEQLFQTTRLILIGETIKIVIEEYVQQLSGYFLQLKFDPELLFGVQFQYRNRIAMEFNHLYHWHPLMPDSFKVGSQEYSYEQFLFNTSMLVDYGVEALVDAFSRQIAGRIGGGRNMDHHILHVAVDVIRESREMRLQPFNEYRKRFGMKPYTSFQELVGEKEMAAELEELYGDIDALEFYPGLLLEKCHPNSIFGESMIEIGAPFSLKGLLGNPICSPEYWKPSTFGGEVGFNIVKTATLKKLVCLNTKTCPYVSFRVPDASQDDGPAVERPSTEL

In another experiment the target is DPP9, Q86TI2.
For experiment [3], the target named is Ubiquitin carboxyl-terminal hydrolase 14, P54578.
The target of experiment [4] is T4, Matrix metalloprotease 2, P08253.
T4 chain: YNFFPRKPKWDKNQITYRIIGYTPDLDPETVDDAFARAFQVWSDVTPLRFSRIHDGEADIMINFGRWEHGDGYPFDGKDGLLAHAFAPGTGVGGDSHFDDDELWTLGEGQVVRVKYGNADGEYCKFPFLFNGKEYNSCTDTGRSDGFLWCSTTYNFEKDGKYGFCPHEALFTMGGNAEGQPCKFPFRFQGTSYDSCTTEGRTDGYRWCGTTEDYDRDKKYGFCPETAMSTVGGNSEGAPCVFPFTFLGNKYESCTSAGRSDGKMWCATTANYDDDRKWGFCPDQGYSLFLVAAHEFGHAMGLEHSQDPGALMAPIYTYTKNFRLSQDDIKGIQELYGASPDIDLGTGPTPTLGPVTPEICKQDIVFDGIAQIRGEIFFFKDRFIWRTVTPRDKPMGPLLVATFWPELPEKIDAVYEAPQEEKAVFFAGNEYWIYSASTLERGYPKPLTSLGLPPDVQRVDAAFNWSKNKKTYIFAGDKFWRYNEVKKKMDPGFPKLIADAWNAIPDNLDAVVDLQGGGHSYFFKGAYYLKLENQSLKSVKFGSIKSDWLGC

The target in the next experiment is Cathepsin L, P07711.
The target of experiment [5] is T5, Matrix metalloprotease 1, P03956.
T5 chain: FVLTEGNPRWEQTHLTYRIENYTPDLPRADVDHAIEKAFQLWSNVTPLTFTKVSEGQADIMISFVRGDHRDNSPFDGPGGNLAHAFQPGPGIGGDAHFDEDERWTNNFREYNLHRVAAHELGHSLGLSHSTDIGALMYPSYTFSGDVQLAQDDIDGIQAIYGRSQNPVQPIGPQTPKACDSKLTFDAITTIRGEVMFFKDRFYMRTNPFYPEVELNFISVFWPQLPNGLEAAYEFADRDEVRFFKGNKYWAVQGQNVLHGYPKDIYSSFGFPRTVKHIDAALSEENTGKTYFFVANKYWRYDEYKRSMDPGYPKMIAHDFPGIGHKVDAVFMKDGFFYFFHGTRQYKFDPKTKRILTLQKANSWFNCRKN

The target in another experiment is T6, Caspase-7, P55210.
T6 chain: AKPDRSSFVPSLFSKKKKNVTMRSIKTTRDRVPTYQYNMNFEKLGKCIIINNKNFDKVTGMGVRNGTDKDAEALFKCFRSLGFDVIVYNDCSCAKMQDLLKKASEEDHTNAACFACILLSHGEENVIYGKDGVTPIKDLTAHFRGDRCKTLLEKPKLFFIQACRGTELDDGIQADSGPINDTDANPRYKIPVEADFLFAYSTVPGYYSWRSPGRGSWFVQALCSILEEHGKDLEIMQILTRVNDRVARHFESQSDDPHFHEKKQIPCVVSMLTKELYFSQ

Sequence of Cathepsin L, P07711 (P07711 114-333 limits assumed): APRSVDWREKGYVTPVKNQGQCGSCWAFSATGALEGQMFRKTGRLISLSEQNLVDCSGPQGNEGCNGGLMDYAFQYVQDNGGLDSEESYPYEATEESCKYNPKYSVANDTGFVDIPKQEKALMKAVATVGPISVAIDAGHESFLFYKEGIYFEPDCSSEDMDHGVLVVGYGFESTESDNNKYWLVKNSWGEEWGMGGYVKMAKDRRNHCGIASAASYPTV
Sequence of Ubiquitin carboxyl-terminal hydrolase 14, P54578 (P54578 whole entry): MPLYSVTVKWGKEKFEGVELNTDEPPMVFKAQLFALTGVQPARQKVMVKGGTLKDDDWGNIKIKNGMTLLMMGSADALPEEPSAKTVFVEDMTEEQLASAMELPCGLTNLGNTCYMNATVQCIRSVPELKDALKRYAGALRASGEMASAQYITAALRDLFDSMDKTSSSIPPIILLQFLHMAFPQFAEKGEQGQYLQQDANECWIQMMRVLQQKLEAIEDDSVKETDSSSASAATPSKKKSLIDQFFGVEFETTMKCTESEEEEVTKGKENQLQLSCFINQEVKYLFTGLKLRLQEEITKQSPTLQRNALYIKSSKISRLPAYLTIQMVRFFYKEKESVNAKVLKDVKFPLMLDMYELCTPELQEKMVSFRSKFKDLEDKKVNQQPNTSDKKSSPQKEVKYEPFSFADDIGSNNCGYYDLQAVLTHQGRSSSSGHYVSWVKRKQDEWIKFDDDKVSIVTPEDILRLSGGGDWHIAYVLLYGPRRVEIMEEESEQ
Sequence of DPP9, Q86TI2 (Q86TI2 whole entry): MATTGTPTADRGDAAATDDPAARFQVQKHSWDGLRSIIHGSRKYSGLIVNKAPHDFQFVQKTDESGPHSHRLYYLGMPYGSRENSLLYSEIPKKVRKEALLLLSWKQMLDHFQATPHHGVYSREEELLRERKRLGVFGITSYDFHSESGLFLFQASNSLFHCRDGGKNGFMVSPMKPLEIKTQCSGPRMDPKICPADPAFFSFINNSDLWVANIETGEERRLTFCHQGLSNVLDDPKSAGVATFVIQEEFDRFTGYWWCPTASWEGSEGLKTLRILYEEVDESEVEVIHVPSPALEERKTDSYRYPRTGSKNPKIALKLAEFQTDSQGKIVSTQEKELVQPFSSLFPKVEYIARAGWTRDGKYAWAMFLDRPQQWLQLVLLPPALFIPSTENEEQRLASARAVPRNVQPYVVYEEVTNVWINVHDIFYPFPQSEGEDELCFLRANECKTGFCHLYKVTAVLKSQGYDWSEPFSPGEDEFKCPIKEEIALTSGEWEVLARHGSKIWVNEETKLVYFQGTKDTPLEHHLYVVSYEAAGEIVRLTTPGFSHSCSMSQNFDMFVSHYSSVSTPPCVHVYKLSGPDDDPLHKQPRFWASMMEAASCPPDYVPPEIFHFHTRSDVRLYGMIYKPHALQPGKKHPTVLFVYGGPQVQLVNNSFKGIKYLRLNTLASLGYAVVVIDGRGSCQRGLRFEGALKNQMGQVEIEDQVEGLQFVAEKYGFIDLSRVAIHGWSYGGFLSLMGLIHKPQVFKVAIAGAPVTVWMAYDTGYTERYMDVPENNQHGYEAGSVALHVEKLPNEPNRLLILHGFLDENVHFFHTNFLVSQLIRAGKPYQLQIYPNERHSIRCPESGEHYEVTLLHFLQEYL
Sequence of Lek kinase (h) (human), P06239 (P06239 whole entry): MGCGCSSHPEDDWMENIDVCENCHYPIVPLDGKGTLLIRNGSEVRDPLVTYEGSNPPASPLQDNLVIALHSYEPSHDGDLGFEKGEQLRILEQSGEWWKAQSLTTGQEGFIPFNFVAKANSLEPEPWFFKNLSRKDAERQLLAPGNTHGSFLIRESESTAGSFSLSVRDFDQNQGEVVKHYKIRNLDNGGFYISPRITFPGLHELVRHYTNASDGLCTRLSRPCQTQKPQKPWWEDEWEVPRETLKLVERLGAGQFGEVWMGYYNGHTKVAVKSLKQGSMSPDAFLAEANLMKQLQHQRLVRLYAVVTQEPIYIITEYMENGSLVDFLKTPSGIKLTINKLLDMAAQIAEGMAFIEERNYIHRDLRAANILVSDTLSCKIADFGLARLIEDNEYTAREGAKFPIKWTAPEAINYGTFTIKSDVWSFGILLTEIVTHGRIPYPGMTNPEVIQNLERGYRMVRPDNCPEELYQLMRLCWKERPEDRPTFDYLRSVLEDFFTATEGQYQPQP

B1: Hex-[Cys(tMeBn(DOTA-PP))-Pro-Pro-Thr-Gln-Phe-Cys]-Asp-NH2 (peptide)
peptide: Hex-CPPTQFCD-NH2
modifications: bridge 1-7; not fully specified (bridges); printed as Hex-[Cys(tMeBn(DOTA-PP))-Pro-Pro-Thr-Gln-Phe-Cys]-Asp-NH2
B1: the % inhibition of control enzyme activity, compound at 10 µM is -5% in experiment [1]; 10% in [2]; 10% in the experiment with COX1(h) (human), P23219. The Percentage inhibition (%) at 1 µM with Cathepsin F, Q9UBX1 was -3%; in the experiment with DPP9, Q86TI2 it was -1%; in experiment [3] it was -1%; in experiment [4] it was 3%; in the experiment with Cathepsin L, P07711 it was 3%; in experiment [5], -1%. In the experiment with Caspase-7, P55210, the Percentage inhibition (%) at 1 µM was -3%. Further, the Percentage inhibition (%) at 10 µM in the experiment with Cathepsin F, Q9UBX1 was -24%; in the experiment with DPP9, Q86TI2, 0%; in experiment [3], 5%; in experiment [4], 3%; in the experiment with Cathepsin L, P07711, 6%; in experiment [5] it was 2%. Further, in the experiment with Caspase-7, P55210, the Percentage inhibition (%) at 10 µM was -3%.

B2: Hex-[Cys(tMeBn(DOTA-AET))-Pro-Pro-Thr-Gln-Phe-Cys]-OH (peptide)
peptide: Hex-CPPTQFC-OH
modifications: bridge 1-7; not fully specified (bridges); printed as Hex-[Cys(tMeBn(DOTA-AET))-Pro-Pro-Thr-Gln-Phe-Cys]-OH
Turning to B2, the % inhibition of control enzyme activity, compound at 10 µM in experiment [1] was -4%; in experiment [2] it was -4%; with COX1(h) (human), P23219, 8%. In addition, the Percentage inhibition (%) at 1 µM was -23% with Cathepsin F, Q9UBX1; -1% with DPP9, Q86TI2; 1% in [3]; -1% in experiment [4]; 0% with Cathepsin L, P07711; 1% in [5]. For the same molecule, in the experiment with Caspase-7, P55210, the Percentage inhibition (%) at 1 µM was -1%. The Percentage inhibition (%) at 10 µM is -25% in the experiment with Cathepsin F, Q9UBX1; -5% with DPP9, Q86TI2; 2% in experiment [3]; -2% in [4]; -6% with Cathepsin L, P07711; -7% in [5]. For the same molecule, the Percentage inhibition (%) at 10 µM with Caspase-7, P55210 was -7%.
